We go through three molecules from article PMC10716038, “Talin and kindlin use integrin tail allostery and direct binding to activate integrins” (Nature Structural & Molecular Biology, 2023).

Experiment [1] concerns the target T1, kindlin-2 (KIND2) (UniProt Q8CIB5 1-680).
T1 chain: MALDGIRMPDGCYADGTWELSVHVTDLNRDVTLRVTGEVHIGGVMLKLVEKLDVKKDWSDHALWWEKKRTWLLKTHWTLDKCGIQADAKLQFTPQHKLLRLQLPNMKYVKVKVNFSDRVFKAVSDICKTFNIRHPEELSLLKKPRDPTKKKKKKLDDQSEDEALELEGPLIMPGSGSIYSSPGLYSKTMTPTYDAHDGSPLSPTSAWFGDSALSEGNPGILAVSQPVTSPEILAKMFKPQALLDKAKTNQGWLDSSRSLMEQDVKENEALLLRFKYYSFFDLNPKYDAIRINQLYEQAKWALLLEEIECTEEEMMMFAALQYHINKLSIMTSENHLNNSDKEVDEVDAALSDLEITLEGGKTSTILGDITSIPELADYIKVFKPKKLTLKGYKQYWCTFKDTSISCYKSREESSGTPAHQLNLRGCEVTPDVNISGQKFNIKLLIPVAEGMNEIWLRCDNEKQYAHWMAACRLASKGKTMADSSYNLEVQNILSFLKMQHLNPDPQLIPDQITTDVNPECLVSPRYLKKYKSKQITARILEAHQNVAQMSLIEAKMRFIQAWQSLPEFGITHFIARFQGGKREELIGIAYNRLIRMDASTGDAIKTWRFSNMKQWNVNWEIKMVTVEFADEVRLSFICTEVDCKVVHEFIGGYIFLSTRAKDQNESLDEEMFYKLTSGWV
As to the kind of experiment: MST.

Experiment [2] concerns the target T2, talin-1 head domain (THD1) (UniProt P26039 1-405).
T2 chain: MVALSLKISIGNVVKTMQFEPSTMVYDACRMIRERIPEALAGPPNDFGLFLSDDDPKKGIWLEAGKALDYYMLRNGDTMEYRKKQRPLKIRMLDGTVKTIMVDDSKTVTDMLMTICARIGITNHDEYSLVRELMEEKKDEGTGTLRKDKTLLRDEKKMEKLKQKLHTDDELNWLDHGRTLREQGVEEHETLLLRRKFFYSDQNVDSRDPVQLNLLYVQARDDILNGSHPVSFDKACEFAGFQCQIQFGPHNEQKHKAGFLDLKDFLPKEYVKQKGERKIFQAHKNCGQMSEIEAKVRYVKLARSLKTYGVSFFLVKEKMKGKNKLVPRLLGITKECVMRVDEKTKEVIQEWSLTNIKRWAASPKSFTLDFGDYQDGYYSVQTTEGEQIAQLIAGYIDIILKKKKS
The experiment is described as follows: MST.

Experiment [3] concerns the target T3, talin-2 head domain (THD2) (UniProt Q71LX4 1-408).
T3 chain: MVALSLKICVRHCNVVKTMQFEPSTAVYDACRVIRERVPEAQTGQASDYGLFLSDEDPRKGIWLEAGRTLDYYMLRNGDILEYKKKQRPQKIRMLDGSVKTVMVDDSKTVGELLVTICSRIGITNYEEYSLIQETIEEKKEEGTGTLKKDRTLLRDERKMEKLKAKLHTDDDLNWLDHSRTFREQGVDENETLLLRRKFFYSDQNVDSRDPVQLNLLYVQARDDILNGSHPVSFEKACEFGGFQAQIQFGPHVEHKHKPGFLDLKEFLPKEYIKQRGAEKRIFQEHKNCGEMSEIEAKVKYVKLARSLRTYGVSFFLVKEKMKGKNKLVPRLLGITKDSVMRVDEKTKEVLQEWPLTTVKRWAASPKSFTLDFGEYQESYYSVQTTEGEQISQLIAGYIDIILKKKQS
As to the kind of experiment: MST.

Experiment [4] deals with T1, kindlin-2 (KIND2). As to the kind of experiment: MST.
Experiment [5] has as its target T1, kindlin-2 (KIND2). As to the kind of experiment: MST; apparent, with THD1.
The target of experiment [6] is T4, TLN1-F3–ΔKIND2 fusion protein.
T4 chain: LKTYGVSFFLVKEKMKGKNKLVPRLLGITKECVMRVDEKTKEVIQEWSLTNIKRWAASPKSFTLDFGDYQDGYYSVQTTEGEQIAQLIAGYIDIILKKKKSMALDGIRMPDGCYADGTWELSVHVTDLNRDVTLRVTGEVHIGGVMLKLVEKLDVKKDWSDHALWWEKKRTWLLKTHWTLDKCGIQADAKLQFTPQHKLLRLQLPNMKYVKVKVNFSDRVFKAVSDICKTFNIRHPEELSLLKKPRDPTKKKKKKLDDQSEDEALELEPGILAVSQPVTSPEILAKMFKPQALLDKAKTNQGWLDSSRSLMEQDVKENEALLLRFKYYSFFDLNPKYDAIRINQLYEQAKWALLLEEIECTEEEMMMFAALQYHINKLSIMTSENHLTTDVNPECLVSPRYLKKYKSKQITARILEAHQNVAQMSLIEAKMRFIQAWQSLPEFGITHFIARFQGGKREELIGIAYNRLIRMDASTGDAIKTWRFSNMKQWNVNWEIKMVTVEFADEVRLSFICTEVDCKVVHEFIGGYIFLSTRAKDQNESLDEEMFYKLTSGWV
The experiment is described as follows: MST; TLN1-F3 contribution.

Experiment [7] has as its target T5, TLN1-F3–ΔKIND2^Y13A fusion protein.
T5 chain: T4 chain with Y114A
As to the kind of experiment: MST; TLN1-F3 contribution.

Experiment [8] deals with T2, talin-1 head domain (THD1). The experiment is described as follows: MST; apparent, with KIND2.
For experiment [9], the target named is T4, TLN1-F3–ΔKIND2 fusion protein. The experiment is described as follows: MST.
Experiment [10] concerns the target T6, kindlin-2 (KIND2) (UniProt Q8CIB5 1-680).
T6 construct: kindlin-2 (KIND2) without the deletions of ΔKIND2; In FC-RDA a copy labelled with Alexa 647 (647–KIND2) was the reporter; also called 647–KIND2; source: E. coli Rosetta, purified (IMAC, SEC); not shown: His10, N-terminal, cleaved; SUMO, N-terminal, cleaved
T6 sequence (looked up): T1 chain
The experiment is described as follows: NMR titration; 15N-labelled TLN1-F3 observed in the presence of β1-CT at saturating concentration (200 µM) with 75 µM KIND2 added; 298 K. Conditions: both partners purified.

Where a chain is given by its changes, count along the chain named. Names may count otherwise. No end group written: not given here.

Consider {ATTO 488}-KLLMIIHDRREFAKFEKEKMNAKWDTGENPIYKSAVTTVVNPKYEGK [ATTO 488-labelled β1-CT (488–β1-CT)], for which the Kd amounted to 2.9 µM with kindlin-2 (KIND2) [1]; 140 µM in experiment [2]; 25 µM in [3]; 3 µM with kindlin-2 (KIND2) [4]; 42 µM with kindlin-2 (KIND2) [5]; 25.3 µM in [6]. Besides, the values for the Kd in experiment [7] and in experiment [8] were 15.7 µM and 153 µM, respectively.

With {ATTO 488}-KLLMIIHDRREFAKFEKEKMNAKWDTGENPIAKSAVTTVVNPKYEGK [ATTO 488-labelled β1-CT^Y783A], the Kd with kindlin-2 (KIND2) [1] stood at 4.9 µM; in experiment [9] it was 4.3 µM.

B1: F3 domain of TLN1 (TLN1-F3) (domain or fragment, UniProt P26039 305-405, looked up)
chain: LKTYGVSFFLVKEKMKGKNKLVPRLLGITKECVMRVDEKTKEVIQEWSLTNIKRWAASPKSFTLDFGDYQDGYYSVQTTEGEQIAQLIAGYIDIILKKKKS
notes: Used unlabelled, 15N-labelled or partially deuterated in NMR; also called T1-F3; source: E. coli (DE3) Rosetta 2, purified (IMAC, SEC); not shown: His10, N-terminal, cleaved; SUMO, N-terminal, cleaved
Take B1: in the experiment with kindlin-2 (KIND2) [10], the binding result was “binds”.
